Reference: article PMC9054013, “FCHO controls AP2’s initiating role in endocytosis through a PtdIns(4,5)P2-dependent switch” (Science Advances, 2022)

T1: Cμ2 (μ2 residues 160 to 435) (UniProt P84092 160-435)
T1 construct: AP2 μ2 subunit, C-terminal subdomain, residues 160 to 435; in the chimera crystals Cμ2 carries an N-terminal His6 tag or a thrombin-cleaved GST tag; also called His6μ2 (residues 160 to 435) wt; isolated Cμ2; source: E. coli BL21 plyS, purified (Ni-NTA, Superdex 200)
T1 sequence (looked up): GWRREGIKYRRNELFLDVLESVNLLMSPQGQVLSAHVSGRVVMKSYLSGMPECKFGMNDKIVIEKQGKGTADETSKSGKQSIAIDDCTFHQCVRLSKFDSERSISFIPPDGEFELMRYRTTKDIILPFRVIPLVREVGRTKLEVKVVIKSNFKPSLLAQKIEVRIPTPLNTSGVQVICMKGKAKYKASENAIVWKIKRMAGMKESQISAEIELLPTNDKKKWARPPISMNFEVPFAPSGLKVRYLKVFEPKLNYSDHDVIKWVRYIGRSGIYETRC


Experiments:
[1] = target: T1, Cμ2 (μ2 residues 160 to 435); test: ITC; Cμ2 with FCHO2 constructs or peptides; 100 mM tris pH 7.4, 150 mM NaCl, 0.25 mM TCEP; 12°C; Nano ITC; settings: both partners purified
[2] = target: T2, AP2 α-appendage (residues 695 to 938) (UniProt P17427 695-938); test: ITC; α-appendage or β2-appendage with C block peptides; 100 mM tris pH 7.4, 150 mM NaCl, 0.25 mM TCEP; 12°C; peptides 1 to 5 mM titrated; settings: both partners purified
T2 construct: AP2 α subunit (α2), appendage, residues 695 to 938; also called α2 ear; pGEX4T2α-appendage; source: E. coli BL21 plyS, purified (GST beads, thrombin, Superdex 200)
T2 sequence (P17427 695-938): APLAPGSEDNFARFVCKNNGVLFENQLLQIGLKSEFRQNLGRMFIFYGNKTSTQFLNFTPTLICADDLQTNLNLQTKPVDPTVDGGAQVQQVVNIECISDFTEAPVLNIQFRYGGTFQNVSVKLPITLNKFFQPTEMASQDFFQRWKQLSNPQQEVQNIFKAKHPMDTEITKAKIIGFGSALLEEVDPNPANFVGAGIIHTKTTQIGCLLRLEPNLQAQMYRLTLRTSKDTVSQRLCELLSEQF

fold reduction of binding against FCHO2-N1+N2 wild type [1] [fold]	Kd [2] [µM]	Binder
5	–	FCHO2-N1+N2 EEK mutant (domain or fragment) NIPDVDAAGYSIAPETNQNDTKENHFYSSSDSDSEDEEPKKYRIEIKPMHPNNSHHTMASLDELKVSIGNITLSPAISRHS
–	> 500	QSEEQVSKNLFGPPAAAAFDHED (peptide, UniProt O14526 426-448, looked up) [FCHO1 C peptide, LES to AAA]
